Assay results from patent publication US11510990B2, “Conjugates of fusion proteins of GLP-1 and FGF21” (BEIJING QL BIOPHARMACEUTICAL CO., LTD., priority 2020, dated 2022).
Where a chain is given by its changes, count along the chain named.

B1: Compound 4: GLP-1/FGF21 fusion polypeptide SEQ ID NO: 4 conjugated with Moiety A at 51K and 231K (conjugate)
chain: HGEGTFTSDVSSYLEEQAAREFIAWLVRGGGGGGGSGGGGSGGGGSGGGGKHPIPDSSPLLQFGGQVRQRYLYTDDAQQTEAHLEIREDGTVGGAADQSPESLLQLRALRPGVIQILGVRTSRFLCQRPDGALYGSLHFDPEACSFRELLLEDGYNVYQSEAHGLPLHLPGQRSPHRDPAPRGPARFLPLPGLPPALPEPPGILAPQPPDVGSSDPLSLVGGSQGRSPSYKS
modifications: Moiety A conjugated at K51 and K231
B2: Compound 19: GLP-1/FGF21 fusion polypeptide SEQ ID NO: 19 conjugated with Moiety A at 51K and 222K (conjugate)
chain: B1 chain with G222K, K231E
modifications: Moiety A conjugated at K51 and K222
B3: Compound 9: GLP-1/FGF21 fusion polypeptide SEQ ID NO: 9 conjugated with Moiety A at 231K (conjugate)
chain: B1 chain with K51S
modifications: Moiety A conjugated at K231
B4: Compound 10: GLP-1/FGF21 fusion polypeptide SEQ ID NO: 10 conjugated with Moiety A at 222K (conjugate)
chain: B1 chain with K51S, G222K, K231E
modifications: Moiety A conjugated at K222
B5: Compound 63: GLP-1/FGF21 fusion polypeptide SEQ ID NO: 160 conjugated with Moiety B at 51C and 222C (conjugate)
chain: B1 chain with R20K, R28K, K51C, R107K, R110K, R120K, R173K, G222C, K231E
modifications: Moiety B conjugated at C51 and C222
B6: Compound 71: GLP-1/FGF21 fusion polypeptide SEQ ID NO: 168 conjugated with Moiety B at 52C and 282C (conjugate)
chain: HGEGTFTSDVSSYLEEQAAKEFIAWLVKGGGGAQPGAQPGAQPGAQPGAQPCQAPGAQPGAQPGAQPGAQPGAQPGAQPGAQPGAQPGAQPGAQPGAQPGAQPGAQPGAQPHPIPDSSPLLQFGGQVRQRYLYTDDAQQTEAHLEIREDGTVGGAADQSPESLLQLKALKPGVIQILGVKTSRFLCQRPDGALYGSLHFDPEACSFRELLLEDGYNVYQSEAHGLPLHLPGQKSPHRDPAPRGPARFLPLPGLPPALPEPPGILAPQPPDVGSSDPLSLVGCSQGRSPSYES
modifications: Moiety B conjugated at C52 and C282
B7: Compound 72: GLP-1/FGF21 fusion polypeptide SEQ ID NO: 169 conjugated with Moiety B at 62C and 282C (conjugate)
chain: B6 chain with C52G, Q53A, A54Q, A61Q, Q62C
modifications: Moiety B conjugated at C62 and C282
B8: Compound 73: GLP-1/FGF21 fusion polypeptide SEQ ID NO: 170 conjugated with Moiety B at 42C and 282C (conjugate)
chain: B6 chain with A41Q, Q42C, C52G, Q53A, A54Q
modifications: Moiety B conjugated at C42 and C282

How the values were obtained:
[1] = Body weight reduction in C57BL/6 mice, daily subcutaneous dosing; assay type: in vivo; conditions: for BW reduction compared to Semaglutide: 30 nmol/kg, 10-day dosing period (FIGS. 1A-1B); for Body weight reduction at 30 nmol/kg (% reduction compared to vehicle)(Day11): male C57BL/6 mice, 30 nmol/kg subcutaneously everyday, Day 11
Description: FIGS. 1A-1F show in vivo activities of fusion protein conjugates. […] Body weight was measured daily. […] Compared to Vehicle control: ***, p<0.001. All data are expressed as mean values and standard error (SEM).
10 week old male C57BL/6 mice were injected everyday subcutaneously with 30 nmol/kg exemplary fusion protein conjugates for 10 or 14 days (n=5). Body weight was daily monitored for each individual animal. Day 1 and Day 10 (or Day 14) are first day and last day of molecule dosage. % BW loss=100*(BW on Day n-BW on Day 1)/(BW on Day 1). Data are indicated as mean values and standard error (SEM) or pooled values. Statistical analysis was performed by One-way ANOVA. Body weight reduction on Day 11 in Table 5 is calculated by −1*(% BW loss−% BW loss of vehicle group).

[2] = Pharmacokinetic measurement in C57BL/6 mice, single subcutaneous dose, plasma ELISA; assay type: in vivo; conditions: for AUC compared to non-acylated fusion protein (Compound 3) / Half-lives of double acylated compared to monoacylated Compounds 9 and 10 / PK properties compared to Semaglutide: 30 nmol/kg subcutaneous; for AUClast / Cmax / Terminal t1/2 / Tmax: single subcutaneous dose 30 nmol/kg, plasma
Description: Each fusion protein conjugate was injected subcutaneously into C57BL/6 mice (n=3/group) once and plasma samples were collected at designed timepoints and analyzed by ELISA method. Plasma concentrations are indicated as mean values and standard error (SEM).
6-8 week old male C57BL/6 mice were administrated in a single subcutaneous dose of 30 nmol/kg of the exemplary fusion protein conjugates (Compounds 4, 9, 10, 19, 63) or the non-acylated fusion protein (i.e., Compound 3, which has the amino acid sequence identical to Compound 2 but without any conjugation) (n=3/group). Plasma samples were collected pre-dose (−5 min), 0.5 hr, 1 hr, 2 hr, 4 hr, 6 hr, 8 hr, 12 hr and 24 hr hours after the injection. For Compound 3, plasma collection timepoints were −5 min, 0.25 h, 0.5 h, 1 h, 2 h, 4 h and 6 h. The concentrations of the fusion protein conjugates or the non-acylated fusion protein in the plasma were measured by an ELISA assay which has immunoreactivities towards both C-terminal FGF21 and intact N-terminal of GLP-1. Based on the graph showing plasma concentration of each protein versus time after subcutaneous injection, the pharmacokinetic parameters were calculated by WinNonlin.
Pharmacokinetic data were analyzed by WinNonlin software. Tmax, Cmax, T1/2, AUC and MRT were calculated for each molecule.

[3] = Body weight in DIO mice: fusion protein conjugate against GLP1 alone and FGF21 alone; assay type: in vivo, DIO male C57BL/6 mice; conditions: both 10 nmol/kg and 30 nmol/kg, subcutaneously everyday for 21 days
Description: (§1) FIGS. 3A-3B show in vivo efficacy in DIO mice. To evaluate the body weight effect of the fusion proteins, 17 week old DIO mice (C57BL/6 mice on high fat diet for 13 weeks) were dosed everyday subcutaneously with different concentrations of compounds for 21 days. […] Data are expressed as mean values and standard error (SEM). n=5 for each treatment group.
17 week old DIO male C57BL/6 mice (˜45 g) were injected everyday subcutaneously with designated proteins (i.e., Compounds 63, 69 and 70) for 21 days. Body weight was measured daily and five animals were used for each treatment group. Day 1 and Day 21 are first day and last day of molecule dosage. % BW loss=100*(BW on Day n-BW on Day 1)/(BW on Day 1). Data are indicated as mean values and standard error (SEM).

[4] = Efficacy study in DIO mice: body weight, fasting glucose, insulin, triglycerides; assay type: in vivo, DIO male C57BL/6 mice
Description: as §1, with “4A-4F” for “3A-3B”, “evaluate effects of the compounds on” for “evaluate”, “weight, blood glucose, plasma insulin and plasma triglyceride in vivo, 17-week” for “weight effect of the fusion proteins, 17 week”
17 week old DIO male C57BL/6 mice (˜45 g) were injected everyday subcutaneously with designated proteins (i.e., Compound 63) for 21 days. Body weight was measured daily and five animals were used for each treatment group. Fasting glucose was also monitored on designated days. Body weight and glucose were monitored for each individual animal. Day 1 and Day 21 are first day and last day of molecule dosage. % BW loss=100*(BW on Day n-BW on Day 1)/(BW on Day 1). Terminal blood was collected and EDTA-2k plasma was prepared and frozen in −80° C. for biomarker measurement. Livers were also collected and frozen in liquid nitrogen and stored in −80° C.
Data are indicated as mean values and standard error (SEM). Statistical analysis was performed by One-way ANOVA.

Molecule | BW reduction compared to Semaglutide [1] | Body weight reduction at 30 nmol/kg (% reduction compared to vehicle)(Day11) [1] | AUC compared to non-acylated fusion protein (Compound 3) [2] | Half-lives of double acylated compared to monoacylated Compounds 9 and 10 [2] | PK properties compared to Semaglutide [2] | AUClast [2] | Cmax [2] | Terminal t1/2 [2] | Tmax [2] | Body weight control compared to GLP1 alone (Compound 70) and FGF21 alone (Compound 69) [3] | Body weight, glycemic control and lipid profile compared to 30 nmol/kg Semaglutide ([4]; 30 nmol/kg subcutaneously everyday for 21 days) | Dose dependence of efficacy ([4]; comparing 10 nmol/kg and 30 nmol/kg)
B1 | much more enhanced and persistent BW reduction | 27.0% | larger AUC | significantly prolonged half-lives | better PK properties | 1.0196 µM·h | 58.3 nM | 19.7 h | 8 h |  |  | 
B2 |  | 27.0% | larger AUC | significantly prolonged half-lives | better PK properties | 1.018 µM·h | 59.9 nM | 10.8 h | 4 h |  |  | 
B3 |  | 27.2% | larger AUC |  |  | 0.7912 µM·h | 65.6 nM | 3.5 h | 6 h |  |  | 
B4 | much more enhanced and persistent BW reduction | 20.0% | larger AUC |  |  | 0.4651 µM·h | 50.2 nM | 1.9 h | 4 h |  |  | 
B5 |  | 24.5% | larger AUC |  |  | 1.2948 µM·h | 88.8 nM | 16.7 h | 6.7 h | better body weight control | better body weight and glycemic control and lipid profile | Dose dependent efficacy
B6 |  | 24.5% |  |  |  |  |  |  |  |  |  | 
B7 |  | 25.8% |  |  |  |  |  |  |  |  |  | 
B8 |  | 20.2% |  |  |  |  |  |  |  |  |  | 
